US20240384250A1, “FIBROBLAST GROWTH FACTOR 23 MODULATING COMPOUNDS” (THE UAB RESEARCH FOUNDATION, priority 2021, published 2024)

Target: T1, FGF23/FGFR4 binding (Homo sapiens, UniProt P22455+Q9GZV9, R179Q)
T1 construct: Fc-FGFR4 protein (human ectodomain) was immobilized; purchased R&D Systems human FGF23 2604FG025/CF; human FGFR4 685FR050
T1 sequence (Q9GZV9 25-251 R179Q): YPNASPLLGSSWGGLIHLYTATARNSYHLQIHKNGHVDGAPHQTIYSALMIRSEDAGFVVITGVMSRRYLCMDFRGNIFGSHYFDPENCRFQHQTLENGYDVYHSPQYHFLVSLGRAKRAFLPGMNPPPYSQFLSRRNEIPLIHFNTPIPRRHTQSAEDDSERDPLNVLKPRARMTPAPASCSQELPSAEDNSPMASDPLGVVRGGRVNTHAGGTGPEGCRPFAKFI
T1 sequence (P22455 22-369 limits assumed): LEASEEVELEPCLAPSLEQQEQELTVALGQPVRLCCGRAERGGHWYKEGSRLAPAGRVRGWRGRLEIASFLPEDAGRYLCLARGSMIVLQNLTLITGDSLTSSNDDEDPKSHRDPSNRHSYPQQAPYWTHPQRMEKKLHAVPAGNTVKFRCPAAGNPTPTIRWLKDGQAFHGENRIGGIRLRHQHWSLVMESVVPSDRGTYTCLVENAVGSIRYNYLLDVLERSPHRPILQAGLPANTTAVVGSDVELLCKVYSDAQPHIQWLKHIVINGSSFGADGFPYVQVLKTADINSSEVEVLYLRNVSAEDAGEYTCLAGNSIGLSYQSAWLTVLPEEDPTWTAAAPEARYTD
Assay: Surface plasmon resonance, FGF23 binding to surface FGFR4 with heparin or sKL in solution
Protocol: For the direct quantitative analysis of label-free molecular interactions in real time, surface plasmon resonance studies were conducted using BIAcore T200 and T200 evaluation software (28975001, Cytiva). Sensor SA (BR100398) and CMS chips (BR100399) were from Cytiva. For the preparation of heparin chips, heparin (2 mg) and amine-PEG3-Biotin (2 mg, 21347, Pierce) were dissolved in 200 μl of H2O and 10 mg of NaCNBH3 was added. The reaction mixture was heated at 70° C. for 24 hours; an additional 10 mg of NaCNBH3 was added; and the reaction was heated at 70° C. for another 24 hours. After cooling to room temperature, the mixture was desalted with the spin column (3000 MWCO). Biotinylated heparin was collected, freeze dried, and used for chip preparation. Biotinylated heparin was immobilized to streptavidin chips according to the manufacturer's protocol. In brief, 20 μl of biotinylated heparin solution (0.1 mg/ml) in HBS-P running buffer (0.01 M N-2-hydroxyethylpiperazine-N′-2-ethanesulfonic acid, 0.15 M NaCl, 0.005% surfactant P20 [pH7.4]; BR100368, Cytiva) was injected over flow cell 2 of the streptavidin chip at a flow rate of 10 μl/min. The successful immobilization of heparin was confirmed by the observation of an approximately 200-resonance unit increase in the sensor chip. […] The response was monitored as a function of time (sensorgram) at 25° C.

B1: sKL: recombinant soluble α-klotho ectodomain, mouse aa 35-982 and human aa 34-981, FLAG- or Strep/His-tagged, purified from HEK293 cells (protein)
chain: EPGDGAQTWARFSRPPAPEAAGLFQGTFPDGFLWAVGSAAYQTEGGWQQHGKGASIWDTFTHHPLAPPGDSRNASLPLGAPSPLQPATGDVASDSYNNVFRDTEALRELGVTHYRFSISWARVLPNGSAGVPNREGLRYYRRLLERLRELGVQPVVTLYHWDLPQRLQDAYGGWANRALADHFRDYAELCFRHFGGQVKYWITIDNPYVVAWHGYATGRLAPGIRGSPRLGYLVAHNLLLAHAKVWHLYNTSFRPTQGGQVSIALSSHWINPRRMTDHSIKECQKSLDFVLGWFAKPVFIDGDYPESMKNNLSSILPDFTESEKKFIKGTADFFALCFGPTLSFQLLDPHMKFRQLESPNLRQLLSWIDLEFNHPQIFIVENGWFVSGTTKRDDAKYMYYLKKFIMETLKAIKLDGVDVIGYTAWSLMDGFEWHRGYSIRRGLFYVDFLSQDKMLLPKSSALFYQKLIEKNGFPPLPENQPLEGTFPCDFAWGVVDNYIQVDTTLSQFTDLNVYLWDVHHSKRLIKVDGVVTKKRKSYCVDFAAIQPQIALLQEMHVTHFRFSLDWALILPLGNQSQVNHTILQYYRCMASELVRVNITPVVALWQPMAPNQGLPRLLARQGAWENPYTALAFAEYARLCFQELGHHVKLWITMNEPYTRNMTYSAGHNLLKAHALAWHVYNEKFRHAQNGKISIALQADWIEPACPFSQKDKEVAERVLEFDIGWLAEPIFGSGDYPWVMRDWLNQRNNFLLPYFTEDEKKLIQGTFDFLALSHYTTILVDSEKEDPIKYNDYLEVQEMTDITWLNSPSQVAVVPWGLRKVLNWLKFKYGDLPMYIISNGIDDGLHAEDDQLRVYYMQNYINEALKAHILDGINLCGYFAYSFNDRTAPRFGLYRYAADQFEPKASMKHYRKIIDSNGFPGPETLERFCPEEFTVCTECSFFHTRKS
modifications: left off: small tags and cut ends
notes: recombinant soluble α-klotho ectodomain, mouse aa 35-982 and human aa 34-981, FLAG- or Strep/His-tagged, purified from HEK293 cells
sKL's effect on increasing FGFR4 affinity for FGF23 relative to heparin: 4- to 5 fold | increase in FGF23/FGFR4 binding affinity (heparin or sKL in solution): approximately 13 fold
